Source: patent US20210277112A1 (BIOND BIOLOGICS, published 2021)
Positions count from the first letter of the chain named. Like-named read-outs stand apart in the source and are kept apart here. One block for each molecule: values may come before it.

Legend:
PIRB [1] = target: T1, PIRB (UniProt P97484 25-642, limits assumed); experiment: binding ELISA, column PIRB, negative control
T1 sequence (looked up): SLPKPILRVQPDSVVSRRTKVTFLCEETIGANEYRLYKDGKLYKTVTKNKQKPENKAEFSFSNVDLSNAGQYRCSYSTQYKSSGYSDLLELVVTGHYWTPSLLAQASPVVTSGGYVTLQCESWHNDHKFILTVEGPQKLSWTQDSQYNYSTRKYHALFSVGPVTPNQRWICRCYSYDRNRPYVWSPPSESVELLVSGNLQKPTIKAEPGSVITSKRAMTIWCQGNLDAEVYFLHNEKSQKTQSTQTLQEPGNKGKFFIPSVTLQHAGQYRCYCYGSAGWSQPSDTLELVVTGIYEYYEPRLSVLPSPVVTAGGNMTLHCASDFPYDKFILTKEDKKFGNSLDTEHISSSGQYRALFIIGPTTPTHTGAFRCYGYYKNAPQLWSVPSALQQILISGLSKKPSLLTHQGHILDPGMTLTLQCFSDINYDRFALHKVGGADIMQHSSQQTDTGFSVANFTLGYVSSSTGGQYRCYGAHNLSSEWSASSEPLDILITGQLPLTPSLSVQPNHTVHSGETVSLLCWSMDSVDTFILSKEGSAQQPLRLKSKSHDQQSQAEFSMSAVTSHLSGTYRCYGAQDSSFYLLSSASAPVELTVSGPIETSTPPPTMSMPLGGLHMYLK

recombinant ILT2 [2] = target: T2, recombinant ILT2 (human, UniProt Q8NHL6 24-461); experiment: binding ELISA, hILT2-Fc, negative control
T2 construct: also called LILRB1; LIR1

ILT6 [3] = target: T3, ILT6 (UniProt Q8N6C8 24-439); experiment: binding ELISA, column hILT6-His, negative control
LILRA1 [4] = target: T4, LILRA1 (UniProt O75019 17-461, limits assumed); experiment: binding ELISA, column hLILRA1-His, negative control
recombinant ILT2 [5] = target: T2, recombinant ILT2; experiment: binding ELISA, hILT2-Fc; positive control is GHI/75 by paragraph 227
[6] = target: T5, ILT2/CD3z chimera on BW5417.3 cells (human; mouse, UniProt P24161 31-164, limits assumed); experiment: flow cytometry titration on BW cells transfected with human ILT2, y axis FAB
T5 construct: domain: trans-membrane and cytoplasmic residues; Expressed on the surface of the mouse BW T cell line; also called BW-ILT2; BW/ILT2z

[7] = target: T6, recombinant human ILT2-Fc conjugated with biotin (human, UniProt Q8NHL6 24-458, limits assumed, conjugated with biotin (sites not given)); experiment: flow cytometry blocking assay: ILT2-biotin binding to cells expressing HLA-G
T6 construct: It is written here as ILT2 then Fc; also called ILT2-biotin; biotinylated ILT2; not shown: Fc portion of human IgG1
Experimental: (§1) Flow cytometry blocking assay—Recombinant human ILT2 protein fused with the Fc portion of human IgG1 at the N terminal was conjugated with biotin (Innova bioscience). A total of 5×10⁵ A375/HLA-G1 cells were incubated in a volume of 100 μL in the presence of anti-ILT2 clone #1 or isotype matched control mAb and ILT2-Fc conjugated with biotin (10 μg/mL) for 30 minutes at room temperature. After several washing steps, streptavidin-PE was added at a final concentration of 0.2 μg/mL and incubated for 30 min on ice followed by FACS analysis.
(§2) The ability of the generated anti-ILT2 antibodies to block the interaction between HLA-G and ILT2 was tested using four different assays. First, a blocking flow cytometry assay was performed. HLA-G transfected A375 cells were incubated with biotinylated ILT2 in the presence of the antibodies of the invention and a positive control antibody. The commercially available anti-ILT2 antibody GHI/75 (BioLegend, cat #333704) was used as the positive control. The binding of ILT2-biotin to the cells was determined using Streptavidin-PE by flow cytometry analysis (FIG. 8A). The percent of blocking was determined by normalizing to a negative control (ILT2 binding in the presence of control IgG). […] The percentage of blocking was calculated at various concentrations of antibody (FIG. 8C).

PIRB [8] = target: T1, PIRB; experiment: binding ELISA, column PIRB
ILT6 [9] = target: T3, ILT6; experiment: binding ELISA, column hILT6-His
LILRA1 [10] = target: T4, LILRA1; experiment: binding ELISA, column hLILRA1-His
recombinant ILT2 [11] = target: T2, recombinant ILT2; experiment: competition ELISA on ILT2: biotinylated 15G8 at 1 µg/ml as the labelled competitor, unbiotinylated 15G8 varied
Experimental: This raises the question of the epitope of GHI/75 and other commercial antibodies. Though the epitopes of these antibodies are not published a competition ELISA assay was performed to see if 15G8 and GHI/75 and HP-F1 could bind ILT2 at the same time. Biotinylated 15G8 antibody was used at a constant concentration (1 μg/ml) in an ILT2 binding ELISA. GHI/75 and HP-F1 were added in increasing concentrations and competition was assessed. Regardless of the amount of these two antibodies added, neither one competed with 15G8 for binding to ILT2 (FIG. 19). In contrast, when naked (unbiotinylated) 15G8 was added, the binding decreased in a dose dependent manner as expected. […] This makes 15G8 the first anti-ILT2 antibody ever identified to bind this epitope, to specifically block interaction with B2M and to be able to simultaneously activate/recruit T cells, NK cells and macrophages/dendritic cells against cancer.

[12] = target: T6, recombinant human ILT2-Fc conjugated …; experiment: flow cytometry blocking assay: ILT2-biotin binding to cells expressing HLA-G; remark: listed apart in the source
Experimental: as §1, §2

T2 sequence (Q8NHL6 24-461 limits assumed): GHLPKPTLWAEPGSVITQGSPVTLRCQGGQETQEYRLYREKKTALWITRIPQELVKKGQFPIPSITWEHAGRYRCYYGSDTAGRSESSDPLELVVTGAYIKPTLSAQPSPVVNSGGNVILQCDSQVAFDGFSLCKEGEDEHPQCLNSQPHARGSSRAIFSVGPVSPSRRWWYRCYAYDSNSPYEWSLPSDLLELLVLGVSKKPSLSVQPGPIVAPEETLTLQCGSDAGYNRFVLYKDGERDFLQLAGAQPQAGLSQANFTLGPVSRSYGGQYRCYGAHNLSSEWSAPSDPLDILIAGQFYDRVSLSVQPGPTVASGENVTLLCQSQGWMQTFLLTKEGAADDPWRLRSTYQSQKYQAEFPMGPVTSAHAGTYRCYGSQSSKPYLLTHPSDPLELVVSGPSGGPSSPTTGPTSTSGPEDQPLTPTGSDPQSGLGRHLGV
T6 sequence (Q8NHL6 24-458 limits assumed): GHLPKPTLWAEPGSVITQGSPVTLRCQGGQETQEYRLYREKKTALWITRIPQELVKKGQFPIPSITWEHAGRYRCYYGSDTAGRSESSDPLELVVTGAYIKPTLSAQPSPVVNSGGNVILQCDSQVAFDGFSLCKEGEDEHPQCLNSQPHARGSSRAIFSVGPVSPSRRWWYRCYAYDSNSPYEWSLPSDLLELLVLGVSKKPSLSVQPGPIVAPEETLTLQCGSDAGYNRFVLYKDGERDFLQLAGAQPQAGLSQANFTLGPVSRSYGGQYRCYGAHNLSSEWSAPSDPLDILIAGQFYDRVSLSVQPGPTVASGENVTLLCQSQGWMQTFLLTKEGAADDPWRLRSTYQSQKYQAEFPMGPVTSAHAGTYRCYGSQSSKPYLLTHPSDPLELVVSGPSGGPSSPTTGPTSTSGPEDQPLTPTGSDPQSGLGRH
T5 sequence (P24161 other isoform, or with tags, fused parts or gaps mutant limits assumed): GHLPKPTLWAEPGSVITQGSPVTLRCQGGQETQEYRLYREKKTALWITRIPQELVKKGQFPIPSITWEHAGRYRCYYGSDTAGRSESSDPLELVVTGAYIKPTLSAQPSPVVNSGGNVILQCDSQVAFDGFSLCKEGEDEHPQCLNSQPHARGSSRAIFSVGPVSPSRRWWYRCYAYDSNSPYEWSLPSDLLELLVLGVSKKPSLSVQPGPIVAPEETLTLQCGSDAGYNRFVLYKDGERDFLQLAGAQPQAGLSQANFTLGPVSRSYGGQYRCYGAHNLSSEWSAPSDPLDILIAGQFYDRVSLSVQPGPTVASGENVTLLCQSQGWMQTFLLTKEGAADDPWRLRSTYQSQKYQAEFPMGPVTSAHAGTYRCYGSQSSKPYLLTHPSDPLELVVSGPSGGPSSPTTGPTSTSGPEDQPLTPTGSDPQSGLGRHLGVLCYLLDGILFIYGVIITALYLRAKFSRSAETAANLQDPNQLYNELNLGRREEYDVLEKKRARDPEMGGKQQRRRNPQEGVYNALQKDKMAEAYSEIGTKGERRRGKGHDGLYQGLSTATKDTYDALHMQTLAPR
T3 sequence (Q8N6C8 24-439 limits assumed): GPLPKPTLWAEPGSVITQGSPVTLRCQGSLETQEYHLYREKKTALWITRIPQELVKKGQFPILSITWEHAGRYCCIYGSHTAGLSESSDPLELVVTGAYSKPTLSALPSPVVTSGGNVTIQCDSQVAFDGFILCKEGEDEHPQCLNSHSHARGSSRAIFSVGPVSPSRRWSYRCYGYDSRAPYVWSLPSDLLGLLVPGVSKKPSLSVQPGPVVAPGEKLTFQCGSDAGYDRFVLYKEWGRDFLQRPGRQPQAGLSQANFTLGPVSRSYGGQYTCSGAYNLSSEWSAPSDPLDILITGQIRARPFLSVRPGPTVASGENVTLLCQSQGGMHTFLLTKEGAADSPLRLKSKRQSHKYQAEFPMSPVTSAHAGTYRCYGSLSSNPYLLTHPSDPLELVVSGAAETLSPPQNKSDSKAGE
T4 sequence (O75019 17-461 limits assumed): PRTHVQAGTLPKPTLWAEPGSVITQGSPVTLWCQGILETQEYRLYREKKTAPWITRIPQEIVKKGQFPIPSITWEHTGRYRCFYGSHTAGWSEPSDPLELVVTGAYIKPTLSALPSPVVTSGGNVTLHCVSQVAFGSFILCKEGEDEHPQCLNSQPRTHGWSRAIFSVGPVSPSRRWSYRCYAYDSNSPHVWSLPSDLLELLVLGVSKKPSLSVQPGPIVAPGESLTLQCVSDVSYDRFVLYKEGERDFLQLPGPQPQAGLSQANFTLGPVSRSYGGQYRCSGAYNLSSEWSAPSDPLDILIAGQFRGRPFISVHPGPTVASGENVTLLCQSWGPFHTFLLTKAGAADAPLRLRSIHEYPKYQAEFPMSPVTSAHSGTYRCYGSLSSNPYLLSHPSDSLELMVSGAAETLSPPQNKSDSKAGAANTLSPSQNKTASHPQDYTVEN

Molecule: Negative
- ELISA (OD) (PIRB [1]): 0.0575 OD
- ELISA (OD) (recombinant ILT2 [2]): 0.05 OD
- ELISA (OD) (ILT6 [3]): 0.071 OD
- ELISA (OD) (LILRA1 [4]): 0.13 OD

Molecule: GHI/75 commercial mouse anti-human ILT2 antibody (BioLegend, Cat. No. 333704)
- ELISA (OD) (recombinant ILT2 [5]): 2.45 OD

B1: chimeric 15G8 (antibody, V domains shown)
VH: DVQLQGSGPGLVKPSQSLSLTCSVTGYSITSGYYWNWIRQFPGNKLEWMGYISYDGSNNYNPSLKNRISITRDTSKNQFFLKLNSVTSEDTATYYCAHGYSYYYAMDCWGQGTSVTVSS
VL: DIQMTQTTSSLSASLGDRVTISCRTSQDISNYLNWYQQKPDGTVKLLISYTSRLHSGVPSRFSGSGSGTDYSLTISNLEQEDIATYFCQQGNTLPTFGSGTKLEIK
notes: Constant regions not described; also called chimeric murine 15G8
- EC50 (read off the curve) [6]: ~0.5 µg/mL
- IC50 (read off the curve) [7]: ~0.2 µg/mL

More lines, now with the values ahead:

- binding result (PIRB [8]): no binding
- binding result (ILT6 [9]): no binding
- binding result (LILRA1 [10]): no binding
- IC50 (read off the curve) (recombinant ILT2 [11]): ~3 µg/mL
B2: 15G8 (original hybridoma-derived murine anti-ILT2 antibody) (antibody, V domains shown)
VH: B1 VH
VL: B1 VL
notes: also called 15G8 antibody

- EC50 (read off the curve) [6]: ~0.5 µg/mL
- IC50 (read off the curve) [12]: ~0.3 µg/mL
- IC50 (read off the curve) [7]: ~0.2 µg/mL
B3: humanized 15G8 (alanine variant) (antibody, V domains shown)
VH: B1 VH with Q16E, S17T, N44K, S69T, T71S, F80S, S88A, E89A, C108A
VL: DIQMTQSPSSLSASVGDRVTITCRTSQDISNYLNWYQQKPGKAVKLLISYTSRLHSGVPSRFSGSGSGTDYTLTISSLQPEDFATYYCQQGNTLPTFGQGTKLEIK
notes: also called 15G8 humanized antibody; humanized antibody 15G8
